Our source for the stoichiometry N values is publication PMC9365671.

Holding throughout (conditions): remark: other sources report otherwise
Experiment [1] addresses T1, full-length human KIF5A-mScarlet-StrepII (human), Q12840.
T1 chain: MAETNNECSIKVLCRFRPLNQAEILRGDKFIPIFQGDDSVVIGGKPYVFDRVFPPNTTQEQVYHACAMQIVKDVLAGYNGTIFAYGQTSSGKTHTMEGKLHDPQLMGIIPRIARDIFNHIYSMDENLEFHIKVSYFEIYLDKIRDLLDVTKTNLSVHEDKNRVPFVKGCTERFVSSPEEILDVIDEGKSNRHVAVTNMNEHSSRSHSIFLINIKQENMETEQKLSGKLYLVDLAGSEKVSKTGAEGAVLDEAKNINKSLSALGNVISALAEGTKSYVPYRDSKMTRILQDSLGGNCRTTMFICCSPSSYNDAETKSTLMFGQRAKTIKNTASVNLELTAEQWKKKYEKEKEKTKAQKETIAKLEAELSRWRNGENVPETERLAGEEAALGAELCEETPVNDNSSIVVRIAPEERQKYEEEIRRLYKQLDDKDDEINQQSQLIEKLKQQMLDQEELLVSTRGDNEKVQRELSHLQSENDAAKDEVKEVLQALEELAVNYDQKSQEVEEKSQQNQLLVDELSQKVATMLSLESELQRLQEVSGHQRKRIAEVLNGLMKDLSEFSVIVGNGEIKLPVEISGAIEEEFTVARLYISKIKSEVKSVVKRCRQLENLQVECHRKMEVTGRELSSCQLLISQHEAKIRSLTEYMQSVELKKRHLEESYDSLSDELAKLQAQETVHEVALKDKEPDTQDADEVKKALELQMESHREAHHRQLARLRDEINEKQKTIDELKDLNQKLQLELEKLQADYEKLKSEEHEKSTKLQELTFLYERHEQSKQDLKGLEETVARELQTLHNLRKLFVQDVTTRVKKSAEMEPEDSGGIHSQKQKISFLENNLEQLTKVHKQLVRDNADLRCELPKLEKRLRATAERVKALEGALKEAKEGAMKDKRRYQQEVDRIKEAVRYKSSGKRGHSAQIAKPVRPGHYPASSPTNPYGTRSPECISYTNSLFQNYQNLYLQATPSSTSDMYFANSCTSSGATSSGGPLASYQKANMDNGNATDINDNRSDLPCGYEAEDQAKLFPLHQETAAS
Kind of experiment: single-molecule fluorescence brightness (TIRF microscopy); brightness of motile KIF5A-mScarlet molecules on microtubules, ATP.

For experiment [2], the target named is T1, full-length human …. Kind of experiment: SEC-MALS; purified full-length KIF5 alone; BioSep SEC-s4000 column, GF150 buffer (25 mM HEPES-KOH, 150 mM KCl, 2 mM MgCl2). In general terms: SEC sorts molecules by how far they enter the pores of the column.
Experiment [3] deals with T2, full-length human KIF5B-mScarlet-StrepII (human), P33176.
T2 chain: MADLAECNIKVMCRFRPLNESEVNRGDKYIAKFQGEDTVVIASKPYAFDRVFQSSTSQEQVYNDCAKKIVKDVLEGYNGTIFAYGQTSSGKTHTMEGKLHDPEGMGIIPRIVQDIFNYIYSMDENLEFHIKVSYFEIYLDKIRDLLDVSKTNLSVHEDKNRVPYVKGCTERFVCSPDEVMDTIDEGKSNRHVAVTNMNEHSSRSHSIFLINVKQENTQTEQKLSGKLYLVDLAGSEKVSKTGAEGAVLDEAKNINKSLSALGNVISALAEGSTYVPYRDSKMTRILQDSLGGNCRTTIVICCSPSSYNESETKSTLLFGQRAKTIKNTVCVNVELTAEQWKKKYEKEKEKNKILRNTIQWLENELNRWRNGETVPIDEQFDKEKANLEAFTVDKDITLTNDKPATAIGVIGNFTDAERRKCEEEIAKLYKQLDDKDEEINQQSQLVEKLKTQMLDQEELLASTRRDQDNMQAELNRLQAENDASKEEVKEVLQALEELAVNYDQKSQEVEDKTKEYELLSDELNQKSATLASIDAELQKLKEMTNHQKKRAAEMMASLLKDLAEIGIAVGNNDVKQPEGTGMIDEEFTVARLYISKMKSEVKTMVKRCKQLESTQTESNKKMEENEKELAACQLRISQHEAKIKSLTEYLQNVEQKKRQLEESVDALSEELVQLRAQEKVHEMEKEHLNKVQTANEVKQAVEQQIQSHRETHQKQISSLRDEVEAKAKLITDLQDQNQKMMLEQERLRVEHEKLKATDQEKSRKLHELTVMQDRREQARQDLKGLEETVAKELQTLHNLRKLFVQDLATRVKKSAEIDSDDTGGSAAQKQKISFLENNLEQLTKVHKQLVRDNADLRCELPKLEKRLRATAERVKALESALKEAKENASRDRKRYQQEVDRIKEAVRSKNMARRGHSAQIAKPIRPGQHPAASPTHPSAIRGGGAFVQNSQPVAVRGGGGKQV
The description is as above.

B1: full-length human KIF5A-mScarlet-StrepII, Q12840 1-1032 (natural protein)
chain: MAETNNECSIKVLCRFRPLNQAEILRGDKFIPIFQGDDSVVIGGKPYVFDRVFPPNTTQEQVYHACAMQIVKDVLAGYNGTIFAYGQTSSGKTHTMEGKLHDPQLMGIIPRIARDIFNHIYSMDENLEFHIKVSYFEIYLDKIRDLLDVTKTNLSVHEDKNRVPFVKGCTERFVSSPEEILDVIDEGKSNRHVAVTNMNEHSSRSHSIFLINIKQENMETEQKLSGKLYLVDLAGSEKVSKTGAEGAVLDEAKNINKSLSALGNVISALAEGTKSYVPYRDSKMTRILQDSLGGNCRTTMFICCSPSSYNDAETKSTLMFGQRAKTIKNTASVNLELTAEQWKKKYEKEKEKTKAQKETIAKLEAELSRWRNGENVPETERLAGEEAALGAELCEETPVNDNSSIVVRIAPEERQKYEEEIRRLYKQLDDKDDEINQQSQLIEKLKQQMLDQEELLVSTRGDNEKVQRELSHLQSENDAAKDEVKEVLQALEELAVNYDQKSQEVEEKSQQNQLLVDELSQKVATMLSLESELQRLQEVSGHQRKRIAEVLNGLMKDLSEFSVIVGNGEIKLPVEISGAIEEEFTVARLYISKIKSEVKSVVKRCRQLENLQVECHRKMEVTGRELSSCQLLISQHEAKIRSLTEYMQSVELKKRHLEESYDSLSDELAKLQAQETVHEVALKDKEPDTQDADEVKKALELQMESHREAHHRQLARLRDEINEKQKTIDELKDLNQKLQLELEKLQADYEKLKSEEHEKSTKLQELTFLYERHEQSKQDLKGLEETVARELQTLHNLRKLFVQDVTTRVKKSAEMEPEDSGGIHSQKQKISFLENNLEQLTKVHKQLVRDNADLRCELPKLEKRLRATAERVKALEGALKEAKEGAMKDKRRYQQEVDRIKEAVRYKSSGKRGHSAQIAKPVRPGHYPASSPTNPYGTRSPECISYTNSLFQNYQNLYLQATPSSTSDMYFANSCTSSGATSSGGPLASYQKANMDNGNATDINDNRSDLPCGYEAEDQAKLFPLHQETAAS
As to B1, the stoichiometry N in experiment [1] and in experiment [2] was 4 throughout.

B2: full-length human KIF5B-mScarlet-StrepII, P33176 1-963 (natural protein)
chain: MADLAECNIKVMCRFRPLNESEVNRGDKYIAKFQGEDTVVIASKPYAFDRVFQSSTSQEQVYNDCAKKIVKDVLEGYNGTIFAYGQTSSGKTHTMEGKLHDPEGMGIIPRIVQDIFNYIYSMDENLEFHIKVSYFEIYLDKIRDLLDVSKTNLSVHEDKNRVPYVKGCTERFVCSPDEVMDTIDEGKSNRHVAVTNMNEHSSRSHSIFLINVKQENTQTEQKLSGKLYLVDLAGSEKVSKTGAEGAVLDEAKNINKSLSALGNVISALAEGSTYVPYRDSKMTRILQDSLGGNCRTTIVICCSPSSYNESETKSTLLFGQRAKTIKNTVCVNVELTAEQWKKKYEKEKEKNKILRNTIQWLENELNRWRNGETVPIDEQFDKEKANLEAFTVDKDITLTNDKPATAIGVIGNFTDAERRKCEEEIAKLYKQLDDKDEEINQQSQLVEKLKTQMLDQEELLASTRRDQDNMQAELNRLQAENDASKEEVKEVLQALEELAVNYDQKSQEVEDKTKEYELLSDELNQKSATLASIDAELQKLKEMTNHQKKRAAEMMASLLKDLAEIGIAVGNNDVKQPEGTGMIDEEFTVARLYISKMKSEVKTMVKRCKQLESTQTESNKKMEENEKELAACQLRISQHEAKIKSLTEYLQNVEQKKRQLEESVDALSEELVQLRAQEKVHEMEKEHLNKVQTANEVKQAVEQQIQSHRETHQKQISSLRDEVEAKAKLITDLQDQNQKMMLEQERLRVEHEKLKATDQEKSRKLHELTVMQDRREQARQDLKGLEETVAKELQTLHNLRKLFVQDLATRVKKSAEIDSDDTGGSAAQKQKISFLENNLEQLTKVHKQLVRDNADLRCELPKLEKRLRATAERVKALESALKEAKENASRDRKRYQQEVDRIKEAVRSKNMARRGHSAQIAKPIRPGQHPAASPTHPSAIRGGGAFVQNSQPVAVRGGGGKQV
Consider B2, for which the stoichiometry N (commonly a count of units in the complex or per binding partner) in experiment [3] was determined as 2.
